Laboratory results reported in ChEMBL document CHEMBL2074321, “A continuous fluorescence assay for the study of P-glycoprotein-mediated drug efflux using inside-out membrane vesicles” (Anal Biochem, 1999).

Tested on: COc1cc2c(c(OC)c1OC)-c1ccc(OC)c(=O)cc1[C@@H](NC(C)=O)CC2
Experiment: TP_TRANSPORTER: uptake in membranes from CEM/VLB100 cells
Assay type: functional, cell membranes, Membrane

“ATP-dependent translocase ABCB1 (Homo sapiens)” was tested, and the Km was 1.33 µM.
